This note sets out measurements from patent publication US20230374142A1 (MONASH UNIVERSITY, published 2023).

The test deals with T1, full-length human CLEC9A on transfected 293F cells (human, UniProt Q6UXN8 1-241).
T1 construct: also called cell surface CLEC9A
The test is described as follows: flow cytometry on 293F cells transfected with full-length human CLEC9A. In general terms: Flow cytometry measures light scatter and fluorescence of single cells or particles in a stream.

T1 sequence (Q6UXN8 whole entry): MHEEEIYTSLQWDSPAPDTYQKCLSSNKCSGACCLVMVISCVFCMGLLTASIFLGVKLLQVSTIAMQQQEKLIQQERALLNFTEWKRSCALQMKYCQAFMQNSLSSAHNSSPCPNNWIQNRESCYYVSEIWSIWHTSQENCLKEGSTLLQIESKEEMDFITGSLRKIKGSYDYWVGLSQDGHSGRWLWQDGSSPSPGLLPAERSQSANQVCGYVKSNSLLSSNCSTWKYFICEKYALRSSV

B1: human/rat chimaeric anti-CLEC9A Ab (clone 4C6) (antibody, V domains shown)
VH: EVQLVESGGGLVQPGGSLKLSCVASGFTFNNYWLAWIRQAPRKGLEWVASITTAAGGTYYPDSVKGRFTISRDNAKSTLYLQMNSLTSEDTATYYCTRVGRDIWDYWGQGVVVTVSS
VL: EILMTQTPVSLPVSLGGQVSFSCRSSQSLLHSDGNTYLHWYLQKPGQSPQLLIWRISNRFSGVPDRFSGSGSGTDFTLKISRVEPEDLGVYYCLQSSHFPPTFGGGTNLEIKR
notes: also called human chimeric anti-Clec9A Ab; original human chimaeric anti-CLEC9A Ab
Take B1: the binding result is “binds”.

B2: humanised anti-CLEC9A Ab (Ab1) (antibody, human IgG4 S228P, kappa, V domains shown)
VH: EVQLLESGGGLVQPGGSLRLSCAASGFTFNNYWLAWVRQAPGKGLEWVASITTAAGGTYYPDSVKGRFTISRDNSKNTLYLQMNSLRAEDTAVYYCTRVGRDIWDYWGQGTLVTVSS
VL: DIVMTQTPLSLSVTPGQPASISCKSSQSLLHSDGNTYLHWYLQKPGQPPQLLIWRISNRFSGVPDRFSGSGSGTDFTLKISRVEAEDVGVYYCLQSSHFPPTFGGGTKVEIKR
notes: Human IgG4 / kappa; also called Humanised CLEC9A Ab; humanised anti-CLEC9A antibody
In the case of B2, the binding result is listed as “binds”.
